This data set in a line: protein stability index of a GFP-peptide fusion (GPS, HEK-293T) (PSI 1-6); higher = more stable. Particulars: c terminus: a fixed tail appended.

± gives the standard deviation.
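Also: 24-mer peptide tiles fused after GFP, lentivirally expressed, FACS-sorted into six equal bins by GFP/DsRed ratio, decoded by Illumina sequencing, PSI is the read-weighted mean bin number.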

For the sequence VGLAVVNGQLMAVGGFDGTTYLKT [KLHL20], the protein stability index came to 2.69 ± 0.54 (treatment: DMSO) and 2.23 ± 0.19 (treatment: MLN4924 1 uM, 8 h).
VGTMVGADILAGREDNSGSDVLIG [SLC35F2]: the protein stability index is, setting by setting: (treatment: DMSO) 4.79 ± 0.26; (treatment: MLN4924 1 uM, 8 h) 4.55 ± 0.22.
Take VHTEFTLRNFNSAKDMKKAVAHMK [MATN2]: the protein stability index runs as follows: (treatment: DMSO) 3.95 ± 0.17; (treatment: MLN4924 1 uM, 8 h) 4.03 ± 0.22.
Take VHYAKVQLRFQHSQDVSDCYLELF [PLEKHN1]: the protein stability index was found to be 2.88 ± 0.82 (treatment: DMSO) and 2.76 ± 0.52 (treatment: MLN4924 1 uM, 8 h).
For VIFLLLFAPFIVYYFIMACDQYSC [DHCR7] the same measures were 2.41 ± 0.19 and 2.39 ± 0.33.
Regarding VISCEFAHNSNWYITFQSDTDAQQ [LARP4], the protein stability index was 2.47 ± 0.23 (treatment: DMSO) and 2.56 ± 0.19 (treatment: MLN4924 1 uM, 8 h).
For VKCNGALINTSDTVQHGAVYSLEP [SDE2] the same measures were 3.57 ± 0.5 and 3.75 ± 0.33.
For VKSIVVKGYNIWTGGPDACLRCWD [TLE6] the same measures were 2.37 ± 0.3 and 2.24 ± 0.43.
For VLAGAAEEGFMTAELAGVIKRLWK [GNAI1] the same measures were 2.38 ± 0.34 and 2.45 ± 0.057.
Turning to VLIRYPNSLDTTSWAWRGPGVLKV [LPCAT4], the protein stability index was 2.77 ± 0.23 (treatment: DMSO) and 2.69 ± 0.8 (treatment: MLN4924 1 uM, 8 h).
For VLLMHMPAEQAFWCLVQICEKYLP [TBC1D10A] the same measures were 2.96 ± 0.37 and 2.88 ± 0.57.
With VLSSTTLLPRQPLPLGIKVYEDET [PALM], the protein stability index worked out at 4.23 ± 0.21 (treatment: DMSO) and 4.18 ± 0.16 (treatment: MLN4924 1 uM, 8 h).
In the case of VLSVSKILHIPQVTKLCVQFLNDQ [KLHL14], the protein stability index stood at 2.52 ± 0.48 (treatment: DMSO) and 2.29 ± 0.35 (treatment: MLN4924 1 uM, 8 h).
As to VLVEKYGWPHEDAAQFTDFLIPML [SRPK2], the protein stability index by setting is: (treatment: DMSO) 2.38 ± 0.26; (treatment: MLN4924 1 uM, 8 h) 2.4 ± 0.26.
Consider VLYPVPLESYEDIHGTLHLERLAY [PRAME], for which the protein stability index by setting is: (treatment: DMSO) 2.31 ± 0.23; (treatment: MLN4924 1 uM, 8 h) 2.38 ± 0.36.
VNDHLLNFVRERTLDKRWRVRKEA [PDS5B]: the protein stability index reads like this: (treatment: DMSO) 2.74 ± 0.44; (treatment: MLN4924 1 uM, 8 h) 3.08 ± 0.35.
With VNNTTLTNSTPLRAACFDGHLEIV [FEM1C], the protein stability index was found to be 2.76 ± 0.34 (treatment: DMSO) and 2.61 ± 0.38 (treatment: MLN4924 1 uM, 8 h).
On to VPVVTPTASTAPPVPATAPSPAPA [SNAP91], for which the protein stability index is, setting by setting: (treatment: DMSO) 4.98 ± 0.17; (treatment: MLN4924 1 uM, 8 h) 5.05 ± 0.11.
For VQRKSDFDQTVFQEVFEPPHYELC [NETO1] the same measures were 3.44 ± 0.23 and 3.62 ± 0.3.
For VREIVKECSNIPLSQPQQGEAMLA [GAN], the protein stability index reads like this: (treatment: DMSO) 4.28 ± 0.37; (treatment: MLN4924 1 uM, 8 h) 4.31 ± 0.36.
Regarding VRLQSQRPSMASELMPSSRLWSLS [SLC25A39], the protein stability index runs as follows: (treatment: DMSO) 2.64 ± 0.32; (treatment: MLN4924 1 uM, 8 h) 2.58 ± 0.17.
On to VRYSDCCERVVINVSGLRFETQMK [KCNA4], for which the protein stability index reads like this: (treatment: DMSO) 2.31 ± 0.46; (treatment: MLN4924 1 uM, 8 h) 2.33 ± 0.37.
VSFVERILKSQKERQCALRVFKAR [FBXO39] yielded a protein stability index (treatment: DMSO) of 2.35 ± 0.41 and a protein stability index (treatment: MLN4924 1 uM, 8 h) of 2.55 ± 0.21.
VSLHDRIYVIGGYDGRSRLSSVEC [KLHL12]: the protein stability index is, setting by setting: (treatment: DMSO) 1.96 ± 0.16; (treatment: MLN4924 1 uM, 8 h) 2.19 ± 0.17.
For the sequence VSSQRFKSSVYRRYNDFVVFQEML [SNX8], the protein stability index was 2.1 ± 0.21 (treatment: DMSO) and 2.21 ± 0.39 (treatment: MLN4924 1 uM, 8 h).
Regarding VTAGCGFGKDFRKGLLKKGACYGD [PPTC7], the protein stability index is, setting by setting: (treatment: DMSO) 2.79 ± 0.56; (treatment: MLN4924 1 uM, 8 h) 2.65 ± 0.11.
For the sequence VTGLMEATQMMVDIDGDVLVFLEL [RHOBTB2], the protein stability index by setting is: (treatment: DMSO) 3.31 ± 0.2; (treatment: MLN4924 1 uM, 8 h) 3.29 ± 0.8.
Consider VTPEAKDLINKMLTINPAKRITAS [CAMK2D], for which the protein stability index is 3.29 ± 0.29 (treatment: DMSO) and 3.33 ± 0.2 (treatment: MLN4924 1 uM, 8 h).
In the case of VTQREHSSEHVTESVADLLALEEP [SLC6A17], the protein stability index is 5.3 ± 0.47 (treatment: DMSO) and 5.12 ± 0.3 (treatment: MLN4924 1 uM, 8 h).
With VVKVLLESGASIEDHNENGHTPLM [ANKRD17], the protein stability index is, setting by setting: (treatment: DMSO) 3.17 ± 0.25; (treatment: MLN4924 1 uM, 8 h) 3.25 ± 0.26.
VVSTSGEQMKVYKCEHCRVLFLDH [IKZF1] registered a protein stability index (treatment: DMSO) of 2.69 ± 0.4 and a protein stability index (treatment: MLN4924 1 uM, 8 h) of 2.3 ± 0.64.
Consider VWDMRSGQCVQAFETHESDINSVR [GNB5], for which the protein stability index amounted to 3.48 ± 0.24 (treatment: DMSO) and 3.56 ± 0.15 (treatment: MLN4924 1 uM, 8 h).
The sequence VYSCAFSPDSSMLCSVGASKAVFL [WSB1] yielded a protein stability index (treatment: DMSO) of 2.8 ± 0.5 and a protein stability index (treatment: MLN4924 1 uM, 8 h) of 2.86 ± 0.49.
Take WAGFMVLLMIPWGSAAKLVCYFTN [CHIT1]: the protein stability index was 2.69 ± 0.069 (treatment: DMSO) and 2.11 ± 0.13 (treatment: MLN4924 1 uM, 8 h).
In the case of WFESVLEPGYIDSEIGTSDQIVPE [TRIB1], the protein stability index was determined as 4.44 ± 0.2 (treatment: DMSO) and 4.09 ± 0.18 (treatment: MLN4924 1 uM, 8 h).
With WGCSCCPPETKHQALSGTPKKGPA [TSPAN10], the protein stability index is, setting by setting: (treatment: DMSO) 4.13 ± 0.41; (treatment: MLN4924 1 uM, 8 h) 4.44 ± 0.26.

Source of the values: the supplement of paper PMC10567573.
